Measured values taken from US20180003720A1.

Target: γ-H2AX peptide standard (synthetic peptide …, serine at position 27 phosphorylated)
Assay: sandwich chemiluminescent ELISA: plate-coated JBW301 captures the γ-H2AX peptide standard; detected with rabbit polyclonal anti-H2AX (Abcam) and goat anti-rabbit HRP

γ-H2AX peptide standard (synthetic peptide …, serine at position 27 phosphorylated), sequence (peptide, as listed by the source): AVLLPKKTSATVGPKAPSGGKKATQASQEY

- Average RLU (n = 3) at 5 pM γH2AX standard: 993000 RLU
- Average RLU (n = 3) at 10 pM γH2AX standard: 2.02e+06 RLU
- Average RLU (n = 3) at 20 pM γH2AX standard: 4.6e+06 RLU
- Average RLU (n = 3) at 40 pM γH2AX standard: 1e+07 RLU
- Average RLU (n = 3) at 80 pM γH2AX standard: 2.08e+07 RLU
- Average RLU (n = 3) at 160 pM γH2AX standard: 3.74e+07 RLU
- Average RLU (n = 3) at 320 pM γH2AX standard: 5.88e+07 RLU
- Average RLU (n = 3) at 640 pM γH2AX standard: 7.92e+07 RLU
Substance: Anti-γ-H2AX (Ser139) mouse monoclonal antibody, clone JBW301 (Millipore)
